This note sets out measurements from patent US20230331827A1, “POTASSIUM CHANNEL INHIBITORS” (priority 2017, published 2023).

In one assay the target is T1, human ASIC1a (human) (UniProt P78348).
T1 sequence (looked up): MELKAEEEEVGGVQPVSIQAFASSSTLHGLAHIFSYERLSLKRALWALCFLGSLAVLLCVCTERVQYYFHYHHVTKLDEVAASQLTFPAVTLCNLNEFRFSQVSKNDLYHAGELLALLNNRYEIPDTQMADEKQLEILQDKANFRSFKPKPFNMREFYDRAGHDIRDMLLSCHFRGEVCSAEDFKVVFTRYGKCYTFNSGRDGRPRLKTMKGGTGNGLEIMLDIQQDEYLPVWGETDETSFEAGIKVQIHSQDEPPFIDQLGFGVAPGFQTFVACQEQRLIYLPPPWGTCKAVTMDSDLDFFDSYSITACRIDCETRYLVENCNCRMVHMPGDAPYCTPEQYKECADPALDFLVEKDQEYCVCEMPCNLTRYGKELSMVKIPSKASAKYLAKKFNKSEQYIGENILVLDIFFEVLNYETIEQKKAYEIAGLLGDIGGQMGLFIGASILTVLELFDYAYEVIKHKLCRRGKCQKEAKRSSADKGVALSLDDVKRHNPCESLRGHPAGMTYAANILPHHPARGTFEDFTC
The assay is described as follows: cell-based or functional assay.

The next assay deals with human Kv1.1 (human) (UniProt Q09470). The assay is described as follows: cell-based or functional assay.
human Kv1.1 (human), sequence (Q09470 whole entry): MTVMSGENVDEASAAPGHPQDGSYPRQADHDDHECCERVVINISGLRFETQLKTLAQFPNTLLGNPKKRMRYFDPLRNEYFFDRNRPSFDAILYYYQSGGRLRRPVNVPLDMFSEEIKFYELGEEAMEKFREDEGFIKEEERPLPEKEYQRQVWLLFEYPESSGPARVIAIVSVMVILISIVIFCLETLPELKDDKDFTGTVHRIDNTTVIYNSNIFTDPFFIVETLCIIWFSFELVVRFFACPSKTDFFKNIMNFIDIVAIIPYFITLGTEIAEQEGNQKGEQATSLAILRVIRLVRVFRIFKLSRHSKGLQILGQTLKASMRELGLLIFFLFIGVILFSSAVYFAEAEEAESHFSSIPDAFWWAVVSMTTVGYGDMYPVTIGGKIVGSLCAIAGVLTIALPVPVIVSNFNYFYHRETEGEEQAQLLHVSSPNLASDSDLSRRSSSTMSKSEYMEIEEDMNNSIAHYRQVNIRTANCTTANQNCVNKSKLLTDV
Another assay deals with human Kv1.3 (human) (UniProt P22001). The assay is described as follows: cell-based or functional assay.
human Kv1.3 (human), sequence (P22001 whole entry): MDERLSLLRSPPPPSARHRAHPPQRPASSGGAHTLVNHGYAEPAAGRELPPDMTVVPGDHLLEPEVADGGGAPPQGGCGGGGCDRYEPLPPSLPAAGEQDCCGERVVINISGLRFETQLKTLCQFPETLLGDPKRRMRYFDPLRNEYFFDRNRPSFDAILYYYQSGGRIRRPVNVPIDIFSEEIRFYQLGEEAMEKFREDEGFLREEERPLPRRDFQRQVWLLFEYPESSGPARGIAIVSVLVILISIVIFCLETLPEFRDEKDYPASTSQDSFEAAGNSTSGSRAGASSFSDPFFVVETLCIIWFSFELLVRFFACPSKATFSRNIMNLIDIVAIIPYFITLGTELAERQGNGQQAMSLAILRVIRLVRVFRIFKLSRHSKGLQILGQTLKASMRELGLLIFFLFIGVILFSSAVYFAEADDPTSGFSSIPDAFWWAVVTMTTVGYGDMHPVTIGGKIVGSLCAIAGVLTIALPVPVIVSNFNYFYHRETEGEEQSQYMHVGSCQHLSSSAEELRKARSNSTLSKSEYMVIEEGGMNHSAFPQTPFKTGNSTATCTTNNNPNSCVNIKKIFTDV
The target of assay [1] is trypsin. The assay is described as follows: flow cytometry, biotinylated trypsin/streptavidin-APC. On the technique in general: In flow cytometry, cells or beads pass a laser one at a time.
Assay [2] has as its target trypsin. The assay is described as follows: flow cytometry of HEK293 cells displaying the scFv-Fc, 15 days post transfection after blasticidin selection; untransfected cells (panel C): Q2 0.043.
The target of assay [3] is trypsin. The assay is described as follows: phage TRF, GlyAla mutant against parent clone.
Assay [4] addresses trypsin. The assay is described as follows: monoclonal phage ELISA on trypsin. On the technique in general: In an ELISA, binding on a coated surface is turned into a signal by an enzyme label.

B1: KB_A07 IgG1 (EETI-II fusion) (antibody, V domains shown)
VH: EVQLVESGGGLVRPGGSLRLSCAASGFTFSSYAMSWVRQAPGKGLEWVSAISGSGGSTYYADSVKGRFTISRDNTKNSLYLQMTSLRADDTAFYYCVKDFGPGYGTGWFDYWGPGTLVTVSS
VL: YLNWYQQKPGKAPKLLIYAAGVCPRILMRCKQDSDCLAGCVCGPNGFCGSRSGVPSRFSGSGSGTDFTLTISSLQPEDFATYYCQQGASPPYTFGQGTKVEIKR
For the molecule B1, the % ASIC1a current remaining at 6 µM, QPatch with human ASIC1a (human) came to 70.9%. Besides, the IC50, channel current, QPatch patch clamp with human Kv1.1 (human) was more than 10 µM. In the assay with human Kv1.3 (human), this molecule had an IC50, channel current, QPatch patch clamp of more than 10 µM and an IC50, huKv1.3 current, QPatch patch clamp of more than 10 µM.

B2: KB_A07 scFv-Fc displayed on HEK293 cells (Fc fusion)
VH: EVQLVESGGGLVRPGGSLRLSCAASGFTFSSYAMSWVRQAPGKGLEWVSAISGSGGSTYYADSVKGRFTISRDNTKNSLYLQMTSLRADDTAFYYCVKDFGPGYGTGWFDYWGPGTLVTVSS
VL: DIQMTQSPSSLSASVGDRVTITCRASQSISSYLNWYQQKPGKAPKLLIYAAGVCPRILMRCKQDSDCLAGCVCGPNGFCGSRSGVPSRFSGSGSGTDFTLTISSLQPEDFATYYCQQGASPPYTFGQGTKVEIKRT
Consider B2, for which the % of transfected HEK293 cells dual stained for Fc and trypsin with trypsin [1] was found to be 34%. Also, the Q2, share of cells stained by both anti-Fc-PE (FL2) and biotinylated trypsin/streptavidin-APC (FL4) in the assay with trypsin [2] was found to be 33.8%.

B3: KB_A11 GlyAla mutant (scFv on phage) (scFv, V domains shown)
VH: EVQLVESGGGLVRPGGSLRLSCAASGFTFSSYAMSWVRQAPGKGLEWVSAISGSGGSTYYADSVKGRFTISRDNTKNSLYLQMTSLRADDTAFYYCVKDFGPGYGTGWFDYWGPGTLVTVSS
VL: YLNWYQQKPGKAPKLLIYAAEICGAILMRCKQDSDCLAGCVCGPNGFCGPSSGIPARFSGSGYGTDFTLTINNIESEDAAYYFCLQHDNFPYTFGQGTKVEIKR
For B3, in the assay with trypsin [3], the % reduction in binding signal turned out to be 100%.

B4: KB_A01 GlyAla mutant (scFv on phage) (scFv, V domains shown)
VH: EVQLVESGGGLVRPGGSLRLSCAASGFTFSSYAMSWVRQAPGKGLEWVSAISGSGGSTYYADSVKGRFTISRDNTKNSLYLQMTSLRADDTAFYYCVKDFGPGYGTGWFDYWGPGTLVTVSS
VL: YLNWYQQKPGKAPKLLIYAAEVCGAILMRCKQDSDCLAGCVCGPNGFCGGTSGVPSRFSGSRSGTEFTLTISSLQPEDFATYYCQKVDDYPLTFGGGTKVEIKR
As for B4, the % reduction in binding signal with trypsin [3] came to 93%.

B5: KB_A12 scFv-Fc displayed on HEK293 cells (Fc fusion)
VH: EVQLVESGGGLVRPGGSLRLSCAASGFTFSSYAMSWVRQAPGKGLEWVSAISGSGGSTYYADSVKGRFTISRDNTKNSLYLQMTSLRADDTAFYYCVKDFGPGYGTGWFDYWGPGTLVTVSS
VL: QSVLTQPPSVSEAPRQRVTITCSGSSSNIGNNAVNWYQQLPGKAPKLLIYAAGRCPRILMRCKQDSDCLAGCVCGPNGFCGANSGVSDRFSAAKSGTSASLAINGLRSEDEADYYCAAWDDSLNGYVFGTGTKLTVLGQP
In turn, B5 had a % of transfected HEK293 cells dual stained for Fc and trypsin with trypsin [1] of 11%. Moreover, the Q2, share of cells stained by both anti-Fc-PE (FL2) and biotinylated trypsin/streptavidin-APC (FL4) in the assay with trypsin [2] came to 11.2%.

B6: G11 (EET 5-3 KnotBody) (scFv, V domains shown)
VH: EVQLVESGGGLVRPGGSLRLSCAASGFTFSSYAMSWVRQAPGKGLEWVSAISGSGGSTYYADSVKGRFTISRDNTKNSLYLQMTSLRADDTAFYYCVKDFGPGYGTGWFDYWGPGTLVTVSS
VL: AVNWYQQLPGKAPKLLIYAAGGCGPNGFCGSGSDGGVCPRILMRCKQDSDCLAGCGQSSGVSDRFSGSKSGTSATLDITGLQTGDEADYYCGTWDNSLSVGVFGGGTKVTVLG
With B6, the ELISA signal with trypsin [4] is 27600.

B7: KB_A12 IgG1 (EETI-II fusion) (antibody, V domains shown)
VH: EVQLVESGGGLVRPGGSLRLSCAASGFTFSSYAMSWVRQAPGKGLEWVSAISGSGGSTYYADSVKGRFTISRDNTKNSLYLQMTSLRADDTAFYYCVKDFGPGYGTGWFDYWGPGTLVTVSS
VL: AVNWYQQLPGKAPKLLIYAAGRCPRILMRCKQDSDCLAGCVCGPNGFCGANSGVSDRFSAAKSGTSASLAINGLRSEDEADYYCAAWDDSLNGYVFGTGTKLTVLG
B7: the % ASIC1a current remaining at 3.3 µM, QPatch with human ASIC1a (human) amounted to 67.4%. Besides, the IC50, channel current, QPatch patch clamp in the assay with human Kv1.1 (human) is more than 10 µM. In the assay with human Kv1.3 (human), the IC50, channel current, QPatch patch clamp is more than 10 µM and the IC50, huKv1.3 current, QPatch patch clamp is more than 10 µM.
